Article PMC11325815 (Journal of Hematology & Oncology, 2024)

Target: recombinant extracellular domain (ECD) of human IL1RAP (S21-E359) (Homo sapiens, UniProt Q9NPH3)
Assay: SPR

Chain of recombinant extracellular domain (ECD) of human IL1RAP (S21-E359) (Q9NPH3 21-359): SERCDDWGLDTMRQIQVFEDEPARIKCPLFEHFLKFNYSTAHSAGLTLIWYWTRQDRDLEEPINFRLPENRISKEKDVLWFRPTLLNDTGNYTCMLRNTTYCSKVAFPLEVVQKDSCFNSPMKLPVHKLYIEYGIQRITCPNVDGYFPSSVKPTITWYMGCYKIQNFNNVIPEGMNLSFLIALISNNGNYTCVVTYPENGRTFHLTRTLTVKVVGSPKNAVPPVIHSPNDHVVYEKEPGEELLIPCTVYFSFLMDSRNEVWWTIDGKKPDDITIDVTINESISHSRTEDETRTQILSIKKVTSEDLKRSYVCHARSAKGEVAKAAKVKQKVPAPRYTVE

B1: anti-IL1RAP-24 Fab (Fab, V domains shown)
VH: QVQLQQSGPELVRPGVSVKISCKGSGYTFTDYAMHWVKQSHGKGLEWIGIISTYSGNTKFHQKFKGKATMTVDKSSSTAYMELARLTSEDSAIYYCARQGTWYFDVWGAGTTVTVSS
VL: QIVLTQSPAIMSASPGEKVTMTCSASSTIIYIHWYQQKPGTSPKGWIYDTSKLASGVPARFSGSGSGTSYSLTISSMEAEDAATYYCHQRTSYPWTFGGGTKLEIK
Work on B1 yielded a Kd of 2.2 nM.
